Laboratory results reported in article PMC12650317 (Biomolecules, 2025).

What was measured:
[1] = target: BVDV NS5A recombinant protein (Bovine viral diarrhea virus 1, RefSeq …, UniProt P19711); assay: ELISA; indirect ELISA (i-ELISA); NS3 or NS5A coated on 96-well plates (10 ug/mL for the panning and serum ELISA); OD450 read; nanobody targeting PRRSV as negative control
[2] = target: T1, BVDV NS3 recombinant protein (Bovine viral diarrhea virus 1, RefSeq …); assay: as above
T1 chain: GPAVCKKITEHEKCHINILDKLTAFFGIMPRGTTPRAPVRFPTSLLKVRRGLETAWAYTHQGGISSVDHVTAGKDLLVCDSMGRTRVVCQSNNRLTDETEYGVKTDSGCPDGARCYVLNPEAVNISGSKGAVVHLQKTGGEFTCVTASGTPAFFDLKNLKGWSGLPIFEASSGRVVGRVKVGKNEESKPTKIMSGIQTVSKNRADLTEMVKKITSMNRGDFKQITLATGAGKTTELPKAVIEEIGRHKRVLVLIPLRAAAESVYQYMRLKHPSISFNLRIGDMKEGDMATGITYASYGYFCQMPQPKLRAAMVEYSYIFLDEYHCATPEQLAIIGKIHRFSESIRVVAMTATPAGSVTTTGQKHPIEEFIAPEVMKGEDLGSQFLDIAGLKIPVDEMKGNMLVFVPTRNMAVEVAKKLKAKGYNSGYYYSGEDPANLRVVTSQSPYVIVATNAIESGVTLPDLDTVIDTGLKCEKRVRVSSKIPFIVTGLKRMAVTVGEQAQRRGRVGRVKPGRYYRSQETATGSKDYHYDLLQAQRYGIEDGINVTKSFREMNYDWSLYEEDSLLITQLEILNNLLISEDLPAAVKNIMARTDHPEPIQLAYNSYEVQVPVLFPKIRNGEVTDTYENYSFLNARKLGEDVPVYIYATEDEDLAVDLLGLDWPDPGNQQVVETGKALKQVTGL

Chain of BVDV NS5A recombinant protein (P19711 2774-3269): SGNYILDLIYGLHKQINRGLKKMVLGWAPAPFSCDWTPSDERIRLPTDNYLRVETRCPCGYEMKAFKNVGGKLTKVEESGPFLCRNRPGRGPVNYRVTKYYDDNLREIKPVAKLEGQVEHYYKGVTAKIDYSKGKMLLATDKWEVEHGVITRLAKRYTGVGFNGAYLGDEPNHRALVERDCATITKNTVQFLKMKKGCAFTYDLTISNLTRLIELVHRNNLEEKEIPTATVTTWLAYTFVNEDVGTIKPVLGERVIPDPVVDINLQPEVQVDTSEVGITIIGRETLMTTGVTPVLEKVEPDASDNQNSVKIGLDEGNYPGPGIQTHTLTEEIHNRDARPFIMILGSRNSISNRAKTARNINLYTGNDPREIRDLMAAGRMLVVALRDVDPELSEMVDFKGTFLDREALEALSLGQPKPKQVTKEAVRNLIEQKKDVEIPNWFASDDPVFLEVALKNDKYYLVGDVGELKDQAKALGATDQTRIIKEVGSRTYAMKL

| Binder | binding result [1] | binding result [2] |
| --- | --- | --- |
| Nb15 (VHH, also called nanobody Nb15) VHH: QVQLQESGGGLVQPGGSLRLSCAASGGSLTYYCMAWFRQTPGKEREWVSCISNYGFTINYADSVKGRFSISRDNAKNTVYLAMHIPEPEDTGVYVCADLSFEHLYYCSTAQSEGSEWGQGTQVTVSS | binds | – |
| Nb22 (VHH, also called nanobody Nb22) VHH: QVQLQESGGGLVQPGGSLRLSCRASGYTSCMAWFRQAPKEREGVASINSDGSTAYADSVQGRFTISRDNTMNTLYLQMNSLKPEDTAMYYCAAERPSSCLPRNIWVDTNYWGQGTQVTVSS | – | binds |
| Nb19 (VHH, also called nanobody Nb19) VHH: QVQLQESGGGLVQPGGSLRLSCAASGFTFQTYSMGWVRQAPGKGLEWVSSISGDGSTYYSDSVKGRFTISTDNANTLYLQMNSLKSEDTAVYYCAKERSPADYRNWLMPYWGKGTLVTVSS | – | binds |
| Nb10 (VHH, also called nanobody Nb10) VHH: QVQLQESGGGLVQPGGSLRLSCAASGETARSGACGWFRQAPGKEREGVASINRYGFRTYADSVKGRFTISTDNAKNTVDLQMSNLRPEDTAAYYCAADSLTFWSAPCCSSTSPGTWGQGTQVTVSS | binds | – |
| Nb11 (VHH, also called nanobody Nb11) VHH: QVQLQESGGGSVQPGGSRRLSCEGSGETLGYRRQTWFRQAPGKEREGVSCISSLDDGTYYKDSVKGRFTISRDNANKMVYLQMNSLEPEDTAIYYCAADPERSSYSGPLGSLGYSYWGQGTQVTVSS | binds | – |
